Data as given in the supplement of paper PMC10724198.
± gives the standard deviation of the averaged measurements.

Each sequence was assayed on Saccharomyces cerevisiae (assay: protein stability index of tFT-peptide fusion (C-terminal peptide) (PSI (0-1 scale)); higher = more stable (slower turnover)). Conditions: genetic background: wild type; temperature: 30 C.
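Further: PSI is a weighted mean of sequencing reads over stability bins, variants kept only with over 10 reads, mCherry proximal and sfGFP distal, peptide attached via GGGS linker.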

Sequence	protein stability index
LSRPTSWLLSFL	0.777 ± 0.12
LSSARPMNLPPG	0.67 ± 0.057
LSSGLLIFPIVF	0.631 ± 0.031
LSSHLHCVTLFT	0.606 ± 0.059
LSSPCAFTCPLL	0.7139 ± 0.0062
LSSPPAPPPPPR	0.677 ± 0.13
LSTPWADPTSSP	0.716 ± 0.096
LSTSINTIIPGP	0.71 ± 0.14
LSVFAFRGVFRF	0.638 ± 0.045
LSVFCALPFVAL	0.7026 ± 0.0048
LSVSLCWRHFFS	0.693 ± 0.012
LTCRASNGIQAA	0.677 ± 0.021
LTGCFRSSRRCC	0.665 ± 0.02
LTGTVQPKLILP	0.722 ± 0.051
LTLGAIRLLLRC	0.496 ± 0.037
LTLGSSGTSFLS	0.698 ± 0.016
LTLPPACFPRLR	0.723 ± 0.059
LTLQIWNLVSHL	0.599 ± 0.071
LTNLGSDRCRLQ	0.623 ± 0.0074
LTSWYGNKLVAV	0.588 ± 0.029
LTVIRSRDVIGP	0.641 ± 0.055
LTVPCSSSFPLL	0.647 ± 0.095
LTWRVDECPPYS	0.712 ± 0.038

Sequence	protein stability index
LVCKRQGQANFI	0.689 ± 0.06
LVCPFFLSSRIF	0.653 ± 0.025
LVDAGGSTRGKP	0.643 ± 0.0069
LVFGGRMRVYRP	0.678 ± 0.016
LVFGLGSVYLWG	0.602 ± 0.059
LVFTDDGGVRSL	0.609 ± 0.03
LVGFGGGGHGVV	0.696 ± 0.019
LVGPPDPAHAVH	0.718 ± 0.031
LVGTYTPRFTPC	0.643 ± 0.1
LVHRGRRGSNIE	0.7537 ± 0.0011
LVLPTSRPRCFI	0.661 ± 0.027
LVQTREKIELVS	0.643 ± 0.027
LVQVGDKRFNRL	0.651 ± 0.01
LVRAWRGGVGGV	0.669 ± 0.0098
LVRCDSSSPLPP	0.6863 ± 0.0042
LVRGKGGRGIEG	0.698 ± 0.074
LVRMCLFNMHFS	0.698 ± 0.018
LVRNGLCCTSRQ	0.704 ± 0.029
LVSACIRFPPSH	0.716 ± 0.079
LVSFLFAPLPLS	0.704 ± 0.038
LVSLGLHAGKRI	0.70514 ± 0.0004
LVVCWGCGLGVL	0.71 ± 0.033
LVVSPPPLPFPS	0.689 ± 0.013

Sequence	protein stability index
LWAQRASPPWYQ	0.606 ± 0.047
LWCPLLTSFPSY	0.726 ± 0.078
LWFWAVECGLGG	0.713 ± 0.32
LWGGGGAGYWVG	0.732 ± 0.035
LWGYFRTAASFV	0.645 ± 0.095
LWLLVAPGPPAQ	0.682 ± 0.027
LWSYFLGLHPSD	0.773 ± 0.038
LWVESRFVQTFL	0.6663 ± 0.0013
LYKSEGVYTGFW	0.729 ± 0.12
LYLKKIQQGIIK	0.69 ± 0.039
LYPEELQATAVY	0.5892 ± 0.00086
LYPTISCSARDG	0.699 ± 0.013
LYSNVLAAVMTG	0.623 ± 0.043
MAARGTEQGTMP	0.71 ± 0.061
MACCGVFISHKT	0.615 ± 0.026
MAEGRARLWGPS	0.701 ± 0.024
MARIASAQTSLT	0.688 ± 0.016
MESAGVGRVVWR	0.654 ± 0.051
MGACGGRVGKFG	0.662 ± 0.035
MGAVGGLCGMWA	0.711 ± 0.029
MGCDGSMAPRSL	0.6608 ± 0.0029
MGFRSVRGWVSL	0.699 ± 0.093
MGGVEMSNRIWE	0.663 ± 0.009

Sequence	protein stability index
MGHKDDRGFADR	0.657 ± 0.013
MGIVEGIGASSL	0.662 ± 0.036
MGKSLCLFTQPI	0.668 ± 0.09
MGMSAGCGGWSG	0.6867 ± 0.0055
MHATWTLRRHGH	0.523 ± 0.04
MIASRVSYDMSY	0.608 ± 0.043
MICGCLWGSEGR	0.627 ± 0.11
MIRVRGRQKIEG	0.724 ± 0.13
MKTNFLDVKILM	0.7186 ± 0.0059
MLGLHSDTRRSR	0.673 ± 0.022
MMEQLCCRRRLF	0.496 ± 0.041
MMMRKAPTARVS	0.637 ± 0.024
MNHHSDCLLRLW	0.648 ± 0.0084
MNNYWKNSTKIK	0.737 ± 0.025
MNRTDPSRDEKP	0.804 ± 0.094
MNSDQSGQGLTV	0.711 ± 0.011
MPKVIIGMSVTK	0.687 ± 0.015
MPNQTEARRKWV	0.633 ± 0.044
MQLPSHFEAWTS	0.781 ± 0.03
MRIKKQNIRNDT	0.615 ± 0.063
MRPSLIKVFLTR	0.632 ± 0.04
MRRSSKPRLSLT	0.725 ± 0.049
MSRPSLARLPAS	0.711 ± 0.011

Sequence	protein stability index
MTESLIGCLSGD	0.7 ± 0.0074
MTIMPSPLGVVH	0.514 ± 0.055
MTLSCGVGLTVG	0.6521 ± 0.0009
MVGAWCAGIPGI	0.668 ± 0.0022
MVMEGLRTLSCQ	0.6589 ± 0.0061
MVRRDGMTVSLG	0.719 ± 0.028
MVTWSDRVIKSW	0.733 ± 0.023
MVVGWGGVEPVG	0.758 ± 0.048
MWVCGFVGGGGG	0.654 ± 0.035
NAHHSASPSHCF	0.6471 ± 0.0059
NALGRPSAFILT	0.695 ± 0.057
NAVSFVKGRLVY	0.657 ± 0.028
NCSSNNRQSENI	0.644 ± 0.017
NDNNSRSGRRIF	0.66 ± 0.019
NDRLDRRDWWEG	0.695 ± 0.022
NELRTFLGDRDI	0.675 ± 0.043
NEPNIRDRSIFS	0.688 ± 0.015
NEQPSKLLAKEC	0.866 ± 0.13
NFRTHRHLVARS	0.762 ± 0.019
NGISQWMGIGGQ	0.667 ± 0.011
NGRNKKRKCLQT	0.706 ± 0.086
NGSIENIAKRKK	0.639 ± 0.077
NGTGGASSLAFG	0.689 ± 0.052

Sequence	protein stability index
NGTGGVSSLAFG	0.6399 ± 0.0013
NHRANKIRKCKD	0.6298 ± 0.0016
NIAGHLHQPVQM	0.712 ± 0.029
NIGVKNVVLVEG	0.537 ± 0.043
NIRLRRKIIINK	0.562 ± 0.088
NKEIKKIRIKKE	0.664 ± 0.076
NKIRIIQVNLNR	0.699 ± 0.17
NKKIEDYDKNKN	0.6835 ± 0.00098
NKKKGYRKKQNH	0.567 ± 0.032
NKKKKETKNAQQ	0.698 ± 0.013
NKKKNKKIRQEK	0.685 ± 0.017
NKNKENMKRKTK	0.682 ± 0.039
NKNKKKIKHKRK	0.669 ± 0.051
NKQNKEIQPKRK	0.653 ± 0.021
NKQTAEIGRGSC	0.651 ± 0.03
NKRCRNITIQRA	0.73379 ± 0.00047
NKRLKNKIKRIK	0.651 ± 0.037
NLPLVDIIPISN	0.828 ± 0.025
NNSLPTDVDKYL	0.683 ± 0.019
NPYKREKKKNKK	0.787 ± 0.14
NQKEIKYTLKYI	0.684 ± 0.018
NQVNEELDKKGH	0.719 ± 0.14
NRQDASAPVCLL	0.719 ± 0.049

Sequence	protein stability index
NRRPLVQNGKLF	0.67849 ± 0.00026
NRVRVNSSYGRD	0.71 ± 0.018
NSGSRGTRVVGL	0.705 ± 0.084
NSKGKKFKCLKK	0.766 ± 0.0099
NSSEIGQNADTA	0.672 ± 0.025
NTRKIEAVGSER	0.658 ± 0.024
NTTKLEKRGNIE	0.574 ± 0.084
NVGEWGTAVMSR	0.684 ± 0.034
NVLIASGIEVKK	0.629 ± 0.0099
NVTIRVAIRYHE	0.575 ± 0.021
NVWGTGGMCTFV	0.7058 ± 0.0019
NWRAAGQSGPES	0.67 ± 0.012
NYKVRKQKVDRN	0.674 ± 0.062
PACPPTSDFPSL	0.623 ± 0.073
PAFRSDKQQSQE	0.703 ± 0.074
PAGVDQPYIPGE	0.6002 ± 0.0054
PAHSTEVVPRVL	0.717 ± 0.018
PALAPLRPLPPV	0.669 ± 0.0073
PALCGGFFLVGV	0.636 ± 0.019
PALGLELYFVLV	0.519 ± 0.012
PALLRLGTGAVG	0.711 ± 0.047
PALPFAPPPLPP	0.685 ± 0.02
